This assay deals with T1, human CRBN protein (cereblon), full-length 51 kDa (human, UniProt Q96SW2 1-442).
T1 construct: also called human CRBN isoform 1 (NP-057386)
In words: denaturing immunoblot. As for the experimental part:
CGN-6-4-5 was diluted 1:10,000 dilution in 0.1% Tween PBS buffer. […] Peptide neutralization was performed by combining antibody with a five-fold (by weight) excess of blocking peptide in 500 μl PBS and incubating with constant rotation at room temperature for 2 hours.

The record followed here is patent publication US20120322073A1 (CELGENE, published 2012).

T1 sequence (Q96SW2 whole entry, canonical isoform): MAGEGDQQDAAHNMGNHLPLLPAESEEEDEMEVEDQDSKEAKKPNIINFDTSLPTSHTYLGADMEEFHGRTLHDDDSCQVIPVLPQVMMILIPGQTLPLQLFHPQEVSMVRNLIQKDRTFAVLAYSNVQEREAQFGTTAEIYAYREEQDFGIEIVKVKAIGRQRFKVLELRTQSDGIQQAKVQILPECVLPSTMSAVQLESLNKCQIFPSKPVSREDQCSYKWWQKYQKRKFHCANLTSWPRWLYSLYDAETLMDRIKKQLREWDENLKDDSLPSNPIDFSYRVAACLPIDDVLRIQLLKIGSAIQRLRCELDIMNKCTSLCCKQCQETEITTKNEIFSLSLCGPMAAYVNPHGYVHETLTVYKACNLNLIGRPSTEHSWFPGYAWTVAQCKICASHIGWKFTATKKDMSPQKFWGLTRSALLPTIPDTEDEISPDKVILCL

B1: Rabbit monoclonal antibody CGN-6-4-5 (antibody, V domains shown)
VH: QSVEESGGRLVTPGTPLTLTCTVSGFSLSRYGVSWVRQAPGKGLEHIGYIYSDPGMTFYATWAKGRFTISKTSSTTVDLKMTSPTIEDTATYFCARGTPLASYSTWGPGTLVTISL
VL: AQVLTQTPASVSAAVGGTVTINCQSSENIYKNNYLSWFQQKPGQPPKLLIYQASTLASGVPSRFKGSGSGTRFSLTISDLECDDAATYYCAGGYSGNIFTFGGGTEVVVKG
notes: Rabbit IgG from a CGN-6 hybridoma clone of rabbits primed with residues 65-76 of human CRBN; also called monoclonal anti-CRBN antibody
Regarding B1, the binding result is reported as “binds”.
